Data from paper PMC9440770.
Positions count from the first letter of the chain named. In names and notes the source's numbering stands.

B1: human αX I-domain (residues Q129 to G319), wild type (domain or fragment)
chain: QEQDIVFLIDGSGSISSRNFATMMNFVRAVISQFQRPSTQFSLMQFSNKFQTHFTFEEFRRSSNPLSLLASVHQLQGFTYTATAIQNVVHRLFHASYGARRDAAKILIVITDGKKEGDSLDYKDVIPMADAAGIIRYAIGVGLAFQNRNSWKELNDIASKPSQEHIFKVEDFDALKDIQNQLKEKIFAIEG
B2: human αX I-domain I314G construct (domain or fragment)
chain: B1 chain with I186G

Biological target: fibrinogen (UniProt P02671)
Test: SPR

UniProt P02671, sequence (P02671 36-866, chain 1 of 3): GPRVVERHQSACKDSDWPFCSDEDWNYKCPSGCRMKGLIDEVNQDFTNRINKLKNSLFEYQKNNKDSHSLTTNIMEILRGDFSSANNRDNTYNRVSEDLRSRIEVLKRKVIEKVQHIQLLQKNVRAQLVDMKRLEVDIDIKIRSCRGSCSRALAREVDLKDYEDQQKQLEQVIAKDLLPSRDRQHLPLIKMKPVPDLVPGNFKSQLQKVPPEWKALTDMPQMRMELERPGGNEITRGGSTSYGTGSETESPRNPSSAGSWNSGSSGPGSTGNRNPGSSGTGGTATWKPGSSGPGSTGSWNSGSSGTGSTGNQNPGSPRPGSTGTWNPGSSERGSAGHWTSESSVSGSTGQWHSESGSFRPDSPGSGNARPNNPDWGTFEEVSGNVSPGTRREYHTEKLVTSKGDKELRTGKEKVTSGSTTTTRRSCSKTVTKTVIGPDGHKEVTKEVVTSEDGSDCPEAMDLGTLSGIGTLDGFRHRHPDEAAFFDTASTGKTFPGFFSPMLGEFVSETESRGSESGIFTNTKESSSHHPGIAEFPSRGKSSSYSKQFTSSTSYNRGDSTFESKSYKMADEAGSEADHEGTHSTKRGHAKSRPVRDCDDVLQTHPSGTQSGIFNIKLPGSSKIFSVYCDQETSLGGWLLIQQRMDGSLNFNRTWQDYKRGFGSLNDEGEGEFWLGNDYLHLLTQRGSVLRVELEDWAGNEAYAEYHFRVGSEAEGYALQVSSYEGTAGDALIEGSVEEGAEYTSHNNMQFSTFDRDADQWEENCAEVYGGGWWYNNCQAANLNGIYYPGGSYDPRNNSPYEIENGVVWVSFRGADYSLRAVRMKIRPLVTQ
UniProt P02671, sequence (P02675 45-491, chain 2 of 3, further chain): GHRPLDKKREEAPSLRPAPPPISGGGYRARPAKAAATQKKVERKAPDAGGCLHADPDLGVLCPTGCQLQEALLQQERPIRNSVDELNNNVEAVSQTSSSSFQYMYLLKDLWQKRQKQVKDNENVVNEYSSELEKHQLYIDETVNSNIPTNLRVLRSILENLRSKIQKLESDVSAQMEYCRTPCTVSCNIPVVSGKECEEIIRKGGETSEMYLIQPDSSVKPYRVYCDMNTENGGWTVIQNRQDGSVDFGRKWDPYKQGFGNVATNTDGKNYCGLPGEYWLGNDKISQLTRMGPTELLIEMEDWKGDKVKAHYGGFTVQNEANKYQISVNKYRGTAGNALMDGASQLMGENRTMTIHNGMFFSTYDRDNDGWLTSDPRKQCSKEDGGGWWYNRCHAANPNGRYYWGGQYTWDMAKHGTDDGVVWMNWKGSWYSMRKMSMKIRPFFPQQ
UniProt P02671, sequence (P02679 27-453, chain 3 of 3, further chain): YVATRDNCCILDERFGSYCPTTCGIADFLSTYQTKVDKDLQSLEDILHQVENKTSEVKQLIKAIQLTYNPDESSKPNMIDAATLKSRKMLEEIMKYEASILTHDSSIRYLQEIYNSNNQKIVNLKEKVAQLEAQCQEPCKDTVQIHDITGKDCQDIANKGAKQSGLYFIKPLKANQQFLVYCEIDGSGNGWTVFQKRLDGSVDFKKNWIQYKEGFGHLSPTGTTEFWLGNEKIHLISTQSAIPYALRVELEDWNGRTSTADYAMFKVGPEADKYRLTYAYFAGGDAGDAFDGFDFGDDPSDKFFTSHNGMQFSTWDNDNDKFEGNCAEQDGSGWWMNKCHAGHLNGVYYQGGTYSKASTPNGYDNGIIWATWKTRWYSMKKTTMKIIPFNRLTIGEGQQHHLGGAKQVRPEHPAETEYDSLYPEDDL

Binder	Kd [µM]
B1	20
B2	100
